Results taken from article doi:10.1101/2020.10.19.344200.

Biological target: S. scrofa RNA polymerase II (transcribing, phosphorylated, on a DNA-RNA scaffold) (S. scrofa)
Assay: cryo-EM structure

percent of Pol II particles with density for U1 snRNP: 17.5%
Substance: human U1 small nuclear ribonucleoprotein particle (from UniProt P08621;P09012;P09234) (complex)
